*1 amine or outer side, *2 acyl side, *3 side chain or, on linkers, in order; H or OH if unused. Cysteamide = C(CS[*:3])N[*:1]
Key:
[1] = target: the molecule itself; experiment: intrinsic tryptophan fluorescence against peptide concentration
[2] = target: T1, 119 kDa b-galactosidase (β-gal) (UniProt P00722 2-1024 = β-galactosidase); experiment: intrinsic Trp fluorescence titration of 1 µM Pep-2
T1 construct: also called beta-gal; β-galactosidase

[3] = target: T2, Pep-B, 51-mer peptide derived from human Cdc25C dual-specificity phosphatase; experiment: intrinsic Trp fluorescence titration of 1 µM Pep-2
T2 construct: also called peptide B

[4] = target: T3, Pep-A, 32-mer peptide derived from HIV-1 reverse transcriptase; experiment: intrinsic Trp fluorescence titration of 1 µM Pep-2
T3 construct: also called peptide A

[5] = target: T1, 119 kDa b-galactosidase (β-gal); experiment: intrinsic Trp fluorescence of Pep-2 on binding
[6] = target: T2, Pep-B, 51-mer peptide derived from …; experiment: intrinsic Trp fluorescence of Pep-2 on binding
[7] = target: T3, Pep-A, 32-mer peptide derived from …; experiment: intrinsic Trp fluorescence of Pep-2 on binding

T1 sequence (P00722 2-1024 limits assumed): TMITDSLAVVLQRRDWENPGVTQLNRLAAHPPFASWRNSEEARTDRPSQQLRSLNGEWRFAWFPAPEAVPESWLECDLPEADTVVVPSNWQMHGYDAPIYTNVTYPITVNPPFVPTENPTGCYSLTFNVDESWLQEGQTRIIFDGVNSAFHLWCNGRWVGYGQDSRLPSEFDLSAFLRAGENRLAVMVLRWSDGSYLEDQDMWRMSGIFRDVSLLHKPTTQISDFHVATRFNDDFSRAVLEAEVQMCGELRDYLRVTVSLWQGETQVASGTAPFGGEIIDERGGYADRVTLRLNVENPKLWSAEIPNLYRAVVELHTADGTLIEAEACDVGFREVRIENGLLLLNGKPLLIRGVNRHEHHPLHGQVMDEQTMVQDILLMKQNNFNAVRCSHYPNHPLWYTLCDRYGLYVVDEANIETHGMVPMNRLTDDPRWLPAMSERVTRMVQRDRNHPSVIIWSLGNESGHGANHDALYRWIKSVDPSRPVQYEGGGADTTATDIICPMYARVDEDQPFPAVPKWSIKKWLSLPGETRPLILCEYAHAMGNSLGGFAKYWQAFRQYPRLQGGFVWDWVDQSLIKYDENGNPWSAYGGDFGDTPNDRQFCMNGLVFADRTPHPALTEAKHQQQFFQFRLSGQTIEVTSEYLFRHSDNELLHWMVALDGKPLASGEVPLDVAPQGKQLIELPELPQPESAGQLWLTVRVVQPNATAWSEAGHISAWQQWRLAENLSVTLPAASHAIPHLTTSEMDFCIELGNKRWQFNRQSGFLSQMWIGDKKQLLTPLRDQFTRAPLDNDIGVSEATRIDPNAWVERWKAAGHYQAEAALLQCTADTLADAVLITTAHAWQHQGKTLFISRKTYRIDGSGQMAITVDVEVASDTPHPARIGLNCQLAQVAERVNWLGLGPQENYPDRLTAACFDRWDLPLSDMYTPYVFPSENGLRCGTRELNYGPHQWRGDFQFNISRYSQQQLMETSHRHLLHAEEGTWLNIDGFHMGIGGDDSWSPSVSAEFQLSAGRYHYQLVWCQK

GALFLGFLGAAGSTMGAWSQPKSKRKV [MPG peptide vector]: no binding [1].

B1: Pep-2 (KETWWETWWTEWSQPKKKRKV-cya) (peptide)
peptide: Ac-KETWWETWWTEWSQPKKKRKV-Cysteamide
notes: Synthetic 21-residue peptide: Trp-rich hydrophobic domain, Ser-Gln-Pro spacer, and a Lys-rich domain derived from the SV40 large T antigen NLS; also called Pep-2-cya; peptide vector
With B1 the Kd [2] was roughly 120 nM, the “concentration of partner at saturation” value [2] was roughly 50 nM and the “saturating quenching of intrinsic tryptophan fluorescence” value (from here on “saturating quenching”) [2] was 65%. The Kd [3] was roughly 120 nM, the “concentration of partner at saturation” value [3] was roughly 200 nM and the “saturating quenching” value [3] was 36%. For the same binder, the Kd [4] was roughly 120 nM, the “concentration of partner at saturation” value [4] was roughly 200 nM and the “saturating quenching” value [4] was 36%. For the same binder, the binding result [1] was “no binding (tested: up to a millimolar concentration)”, the “blue shift of the fluorescence emission maximum” value (shortened to “blue shift”) [5] was 10 nm and the “blue shift” value [6] was 10 nm. For the same binder, the “blue shift” value [7] was 10 nm.

— US20030119725A1 (ACTIVE MOTIF, published 2003)
